Assay results taken from the supplement of paper PMC10724198.
± gives the standard deviation of the averaged measurements.

What was measured:
[1] = test system: Saccharomyces cerevisiae; test: protein stability index of tFT-peptide fusion (C-terminal peptide) (PSI (0-1 scale)); higher = more stable (slower turnover); conditions: genetic background: wild type; temperature: 30 C
[2] = test system: Saccharomyces cerevisiae; test: as above
Procedure: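 MPS profiling in S. cerevisiae of the tFT-X12 degron library: putative degron peptides plus stable controls, 12 aa, fused to the C-terminus of a sfGFP-mCherry timer. Cells are FACS-sorted into 8 mCherry/sfGFP bins and deep-sequenced. PSI runs from 0 (unstable) to 1 (stable). Backgrounds are wild type, das1Δ and doa10Δ at 30 °C, and wild type, das1Δ, cdc34-1 and cdc53-1 at 37 °C; 2-3 technical replicates each.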

[3] = genetic background: cdc34-1, temperature: 37 C
[4] = genetic background: cdc53-1, temperature: 37 C
[5] = genetic background: das1 deletion, temperature: 30 C
[6] = genetic background: das1 deletion, temperature: 37 C
[7] = genetic background: doa10 deletion, temperature: 30 C
[8] = genetic background: wild type, temperature: 30 C
[9] = genetic background: wild type, temperature: 37 C
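Note: PSI is a weighted mean of sequencing reads over stability bins, variants kept only with over 10 reads, mCherry proximal and sfGFP distal, peptide attached via GGGS linker.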

Sequence	protein stability index [1]	protein stability index [2, 3]	protein stability index [2, 4]	protein stability index [2, 5]	protein stability index [2, 6]	protein stability index [2, 7]	protein stability index [2, 8]	protein stability index [2, 9]
SRSYNSPSLYVC	0.147 ± 0.009	0.498 ± 0.061	0.6496 ± 0.0057	0.605 ± 0.029	0.712 ± 0.0089	0.0903 ± 0.0041	0.102 ± 0.016	0.109 ± 0.0097
SRVCVLTGISCA	0.473 ± 0.018	0.568 ± 0.011	0.606 ± 0.016	0.416 ± 0.029	0.6023 ± 0.0038	0.387 ± 0.013	0.421 ± 0.011	0.572 ± 0.013
SSLAKFQLISTY	0.394 ± 0.017	0.429 ± 0.0045	0.464 ± 0.011	0.316 ± 0.04	0.508 ± 0.049	0.267 ± 0.003	0.305 ± 0.016	0.46 ± 0.0088
SVFSFCLCVGVV	0.294 ± 0.066	0.285 ± 0.0083	0.363 ± 0.076	0.266 ± 0.028	0.402 ± 0.011	0.213 ± 0.014	0.253 ± 0.033	0.358 ± 0.0064
SVFWCFHVLFWS	0.39 ± 0.0011	0.425 ± 0.039	0.4971 ± 0.0027	0.395 ± 0.025	0.5448 ± 0.0013	0.327 ± 0.011	0.345 ± 0.022	0.4926 ± 0.0049
SVLCLFSRLRSV	0.354 ± 0.069	0.625 ± 0.022	0.7308 ± 0.0022	0.638 ± 0.015	0.736 ± 0.0017	0.17 ± 0.0041	0.19 ± 0.032	0.383 ± 0.011
SVPIAFYLLFFQ	0.464 ± 0.021	0.557 ± 0.0081	0.605 ± 0.027	0.458 ± 0.021	0.648 ± 0.013	0.434 ± 0.013	0.456 ± 0.016	0.575 ± 0.016
SVSQTSILDSRL	0.71 ± 0.0074	0.7109 ± 0.0043	0.756 ± 0.022	0.668 ± 0.012	0.74121 ± 0.00058	0.667 ± 0.018	0.675 ± 0.012	0.7313 ± 0.0043
SVVRCWVLLGVA	0.276 ± 0.024	0.121 ± 0.047	0.157 ± 0.028	0.198 ± 0.013	0.303 ± 0.0057	0.135 ± 0.0021	0.164 ± 0.026	0.2377 ± 0.0011
SWELKWVYARVV	0.131 ± 0.005	0.374 ± 0.0097	0.5602 ± 0.0046	0.516 ± 0.02	0.674 ± 0.017	0.093 ± 0.0033	0.0851 ± 0.0075	0.0902 ± 0.0089
